We go through 2 molecules from doi:10.1101/2025.01.22.634223 (bioRxiv, 2025).

Sequences and labels used below:
B2: GST::hGDI1 (natural protein)
chain: MDEEYDVIVLGTGLTECILSGIMSVNGKKVLHMDRNPYYGGESSSITPLEELYKRFQLLEGPPESMGRGRDWNVDLIPKFLMANGQLVKMLLYTEVTRYLDFKVVEGSFVYKGGKIYKVPSTETEALASNLMGMFEKRRFRKFLVFVANFDENDPKTFEGVDPQTTSMRDVYRKFDLGQDVIDFTGHALALYRTDDYLDQPCLETVNRIKLYSESLARYGKSPYLYPLYGLGELPQGFARLSAIYGGTYMLNKPVDDIIMENGKVVGVKSEGEVARCKQLICDPSYIPDRVRKAGQVIRIICILSHPIKNTNDANSCQIIIPQNQVNRKSDIYVCMISYAHNVAAQGKYIAIASTTVETTDPEKEVEPALELLEPIDQKFVAISDLYEPIDDGCESQVFCSCSYDATTHFETTCNDIKDIYKRMAGTAFDFENMKRKQNDVFGEAEQ

The assay “GST::hGDI1” concerns the target B2. The experiment in a line: pull-down.
A further assay addresses 6HIS::MYC::PIAS1::6HIS (human, UniProt O75925 1-651). The assay is described as follows: pull-down.

6HIS::MYC::PIAS1::6HIS, sequence (O75925 whole entry): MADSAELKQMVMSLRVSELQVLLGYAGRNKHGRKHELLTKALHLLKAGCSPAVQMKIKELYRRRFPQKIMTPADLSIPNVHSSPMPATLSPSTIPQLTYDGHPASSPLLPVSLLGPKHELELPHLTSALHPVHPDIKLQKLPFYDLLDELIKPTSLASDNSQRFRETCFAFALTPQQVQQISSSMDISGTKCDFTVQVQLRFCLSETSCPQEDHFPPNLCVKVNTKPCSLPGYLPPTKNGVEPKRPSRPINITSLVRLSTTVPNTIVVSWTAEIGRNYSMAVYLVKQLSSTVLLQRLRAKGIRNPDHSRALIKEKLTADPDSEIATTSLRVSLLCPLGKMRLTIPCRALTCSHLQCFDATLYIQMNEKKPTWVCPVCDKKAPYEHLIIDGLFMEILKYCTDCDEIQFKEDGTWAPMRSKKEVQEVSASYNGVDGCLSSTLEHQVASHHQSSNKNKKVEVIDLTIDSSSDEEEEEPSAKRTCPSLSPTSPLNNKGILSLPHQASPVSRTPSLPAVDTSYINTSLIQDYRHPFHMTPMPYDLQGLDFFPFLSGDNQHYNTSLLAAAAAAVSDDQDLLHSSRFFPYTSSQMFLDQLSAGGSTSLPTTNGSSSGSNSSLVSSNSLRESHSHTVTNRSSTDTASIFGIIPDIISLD

B1: 6HIS::MYC::RAB1A::6HIS (natural protein)
chain: not shown
Take B1: the binding result in the assay with GST::hGDI1 is listed as “binds”. On to B2, for which the binding result with 6HIS::MYC::PIAS1::6HIS is listed as “binds”.
